T1: 14-3-3 protein, Q5ZKC9
T1 chain: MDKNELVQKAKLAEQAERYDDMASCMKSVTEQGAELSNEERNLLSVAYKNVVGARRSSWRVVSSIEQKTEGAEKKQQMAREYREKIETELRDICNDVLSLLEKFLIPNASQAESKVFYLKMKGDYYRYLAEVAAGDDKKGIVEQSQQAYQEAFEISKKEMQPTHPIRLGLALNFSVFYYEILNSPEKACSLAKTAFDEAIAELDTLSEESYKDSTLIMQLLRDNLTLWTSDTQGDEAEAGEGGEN


Target: T1, 14-3-3 protein, Q5ZKC9
Assay: co-immunoprecipitation (IP FOXO1, WB 14-3-3), band quantification
Settings: chain shown with the change; chicken granulosa cells, with 740-Y-P; n = 3; parent: est. 3.7; read off a plot

| Binder | response |
| --- | --- |
| chicken forkhead box O1 (FOXO1) wild-type, A0A8V0XGP1 S311A (protein) MAEAPQLVDIDPDFEPLPRPRSCTWPLPRPEFNPPSSATSSPAPSCGGQPDGAAAAGAAVAVAASGALSADFISNLCLVEESEDFALPPAAAAPPESAACRCGDFSAPEAGCRLHPPGPPPVPPVPPAVAALSPGPVAGQPRKSSSSRRNAWGNLSYADLITKAIESSPEKRLTLSQIYEWMVKSVPYFKDKGDSNSSAGWKNSIRHNLSLHSKFIRVQNEGTGKSSWWMLNPEGGKSGKSPRRRAASMDNNSKFAKSRGRAAKKKASLQSGQEGNGDSPGSQFSKWPASPSSHSNDDFDNWSTFRPRTSANASTISGRLSPILPEQDDLGDGDVHSMVYPSSATKMTSTLPSLSEMSSSENMENLLDNLNLLSPNTSMTVSTQSSSAALMQQTPGYSFASSTTSICSPNPDYRKFTYAQASMNSLPQIPMQTLQDSKSSYGSMSQFNCPAGLLKELLTSDSPPHNDILASVDTGVSQAGGRALGQGVLMVTNSVMPTYGNQPPHNKMMNPNARPHQGHNQPTPAVNGRALSHTVNPMSHTSCLNRLSTVKTSLQVPMSHQMQMNAMNPYAPVNSCNGYGRVGIVSLHQEKLPSDLDDMLIERLDCDMESIIRNDLMDGETLDFNFDSVLPNQSFQHSVKTTTHSWVSG | 3.7 |
| chicken forkhead box O1 (FOXO1) wild-type, A0A8V0XGP1 S248A (protein) MAEAPQLVDIDPDFEPLPRPRSCTWPLPRPEFNPPSSATSSPAPSCGGQPDGAAAAGAAVAVAASGALSADFISNLCLVEESEDFALPPAAAAPPESAACRCGDFSAPEAGCRLHPPGPPPVPPVPPAVAALSPGPVAGQPRKSSSSRRNAWGNLSYADLITKAIESSPEKRLTLSQIYEWMVKSVPYFKDKGDSNSSAGWKNSIRHNLSLHSKFIRVQNEGTGKSSWWMLNPEGGKSGKSPRRRAAAMDNNSKFAKSRGRAAKKKASLQSGQEGNGDSPGSQFSKWPASPSSHSNDDFDNWSTFRPRTSSNASTISGRLSPILPEQDDLGDGDVHSMVYPSSATKMTSTLPSLSEMSSSENMENLLDNLNLLSPNTSMTVSTQSSSAALMQQTPGYSFASSTTSICSPNPDYRKFTYAQASMNSLPQIPMQTLQDSKSSYGSMSQFNCPAGLLKELLTSDSPPHNDILASVDTGVSQAGGRALGQGVLMVTNSVMPTYGNQPPHNKMMNPNARPHQGHNQPTPAVNGRALSHTVNPMSHTSCLNRLSTVKTSLQVPMSHQMQMNAMNPYAPVNSCNGYGRVGIVSLHQEKLPSDLDDMLIERLDCDMESIIRNDLMDGETLDFNFDSVLPNQSFQHSVKTTTHSWVSG | 2.7 |

— publication PMC12691273
